Measured values taken from CN114790245A (CHENGDU KANGHONG BIOLOGICAL TECH CO LTD, dated 2022).
Positions count from the first letter of the chain named.

B1: KH19 (antibody, V domains shown)
VH: EVQLQQSGAEVVRPGASVKLSCKPSGFNIKDYYMFWLRQRPDQGLEWIGRIDPENGNTVYDPRFQDRASITAVTSSNTAFLQVNSLTSEDTAVYYCARAGSIPSYWGQGTLVTVSA
VL: DIQMTQSPSSLSASLGDKITITCKASQDINKYIAWYQHKPGKGPRLLIHYTSSLHQDIPSRFSGSGSGRDYSFSISNLEPEDFAIYYCLQYDDLWTFGGGTKVEIK
B2: KH13 (antibody, human IgG1, kappa, V domains shown)
VH: QVQLVQSGAEVKKPGASVKVSCKASGYTFTNYWMHWVRQAPGQGLEWMGAIYPGDSDTSYNQKFKGRVTMTRDTSTSTVYMELSSLRSEDTAVYYCARERAYYRYDEDFDYWGQGTLVTVSS
VL: DIQMTQSPSSLSASVGDRVTITCSATSIINSNYFHWYQQKPGKAPKLLIYRTSNLASGVPSRFSGSGSGTDFTFTISSLQPEDIATYYCQQGSSLPRTFGGGTKLEIKR
B3: KH16 (antibody, human IgG4 S228P, kappa, V domains shown)
VH: EVQLVQSGAEVKKPGATVKISCKVSGYTFTNYWMHWVQQAPGKGLEWMGAIYPGDSDTSYNQKFKGRVTITADTSTDTAYMELSSLRSEDTAVYYCTRERAYYRYDEDFDYWGQGTLVTVSS
VL: B2 VL
B4: KH21 (antibody, V domains shown)
VH: EVQLQQSGAELVKPGASVKLSCTGSGFNIKDIYMFWVKQRPEQGLEWIGRIDPENGNIKYDPKFQGKATITAETSSNTVYLQLNSLTSEDTAVYYCSRGGGLFAYWGQGTLVTVSA
VL: DIQMTQSPSSLSASLGGKVTITCKASQDINKYIAWYQHKPGKGPRLLIHYTSTLQPGIPSRFSGSGSGSDYSFSISTLEPEDIATYYCLQYDDLWTFGGGTKLEIK
B5: KH11 (antibody, human IgG4 S228P, kappa)
heavy: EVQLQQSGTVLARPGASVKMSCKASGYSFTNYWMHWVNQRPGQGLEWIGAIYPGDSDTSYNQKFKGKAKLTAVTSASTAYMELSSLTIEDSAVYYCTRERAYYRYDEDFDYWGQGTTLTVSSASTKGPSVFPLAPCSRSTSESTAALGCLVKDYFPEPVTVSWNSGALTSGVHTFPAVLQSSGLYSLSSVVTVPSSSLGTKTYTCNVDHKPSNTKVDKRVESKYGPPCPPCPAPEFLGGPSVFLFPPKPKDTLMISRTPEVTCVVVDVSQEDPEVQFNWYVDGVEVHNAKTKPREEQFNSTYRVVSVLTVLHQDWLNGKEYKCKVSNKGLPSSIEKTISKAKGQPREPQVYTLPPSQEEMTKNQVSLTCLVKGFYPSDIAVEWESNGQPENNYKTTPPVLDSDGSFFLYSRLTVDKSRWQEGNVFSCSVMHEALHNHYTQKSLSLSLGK
light: EIVLTQSPTTMAASPGEKITITCSATSIINSNYFHWYQQKPGFSPKLLIYRTSNLASGVPARFSGSGSGTSYSLTIGTMEAEDVATYYCQQGSSLPRTFGGGTKLEIKRTVAAPSVFIFPPSDEQLKSGTASVVCLLNNFYPREAKVQWKVDNALQSGNSQESVTEQDSKDSTYSLSSTLTLSKADYEKHKVYACEVTHQGLSSPVTKSFNRGEC
B6: KH10 (antibody, human IgG1, kappa)
heavy: not shown
light: B5 light
B7: KH01 (antibody, human IgG4 S228P, kappa, V domains shown)
VH: EVQLHQSGAELVKPGASVRLSCTASGFNIKDTYIFWVKQRPEQGLEWIGRIDPENDNTKFDPKIQGKATLTADTSSNTAYLQLGSLTSEDSAIYYCAKGGGLFAYWGQGTLVSVSA
VL: DIQMTQSPSSLSASLGGKVTITCKASHDINKYIAWYQHKPGSGPRLLIHFTSTLQSDIPSRFSGSGSGRDYSFSISNLEPEDIATYYCLQYDNLFTFGGGTKLEIKR
B8: KH02 (antibody, human IgG4 S228P, kappa, V domains shown)
VH: B7 VH with H5Q, E42K, F60Y, G84S
VL: B7 VL with A13T, K24E, K31N, S42K, F50Y, D57G, R69K
B9: KH12 (antibody, human IgG1, kappa, V domains shown)
VH: B2 VH
VL: EIVMTQSPPTLSLSPGERVTLSCSATSIINSNYFHWYQQKPGQAPRLLIYRTSNLASGIPARFSGSGSGTDFTLTISSLQPEDFAVYYCQQGSSLPRTFGGGTKLEIKR
B10: KH14 (antibody, human IgG1, kappa, V domains shown)
VH: B2 VH
VL: EIVLTQSPAIMSASPGERVTMTCSATSIINSNYFHWYQQKPGTSPRRWIYRTSNLASGVPARFSGSGSGTDYSLTISSMEPEDAATYYCQQGSSLPRTFGGGTKLEIKR
B11: KH15 (antibody, human IgG4 S228P, kappa, V domains shown)
VH: B3 VH
VL: B9 VL
B12: KH20 (antibody, V domains shown)
VH: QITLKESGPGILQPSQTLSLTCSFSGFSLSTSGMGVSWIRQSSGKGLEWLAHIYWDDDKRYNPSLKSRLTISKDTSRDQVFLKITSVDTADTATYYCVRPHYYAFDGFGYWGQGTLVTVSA
VL: DIKMTQSPSSMSASPGERVTITCKASQDINSYLSWFQQKSGKFPKTLIYRANRLVDGVASRFSGSGSGQDYSLTISSLDYEDMGIYYCVQYDEFPLTFGAGTKLELK
B13: KH18 (antibody, human IgG4 S228P, kappa, V domains shown)
VH: QVQLLESGAELVRPGSSVKISCKASGYAFTNYWMHWVKQRPGQGLEWIGAIYPGDSDTSYNQKFKGKATLTADESSSTAYMQLSSLRSEDSAVYSCARERAYYRYDEDFDYWGQGTTVTVSS
VL: B2 VL
B14: KH03 (antibody, human IgG4 S228P, kappa)
heavy: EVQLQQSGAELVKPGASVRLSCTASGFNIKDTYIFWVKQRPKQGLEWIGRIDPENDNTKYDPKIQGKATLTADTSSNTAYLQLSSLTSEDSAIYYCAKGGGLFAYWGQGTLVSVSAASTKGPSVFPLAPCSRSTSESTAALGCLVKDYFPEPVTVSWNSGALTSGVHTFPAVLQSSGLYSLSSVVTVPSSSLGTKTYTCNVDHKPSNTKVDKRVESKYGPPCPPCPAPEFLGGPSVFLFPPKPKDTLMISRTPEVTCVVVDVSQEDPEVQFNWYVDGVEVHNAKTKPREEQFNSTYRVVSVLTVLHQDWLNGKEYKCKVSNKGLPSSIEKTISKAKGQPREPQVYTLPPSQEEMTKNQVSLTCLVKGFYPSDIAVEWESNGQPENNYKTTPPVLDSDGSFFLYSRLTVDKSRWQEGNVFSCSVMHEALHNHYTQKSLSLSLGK
light: DIQMTQSPSAMSASVGDRVTITCEASHDINNYIAWYQQKPGKAPKLLIYYTSTLQSGVPSRFSGSGSGTEFTLTISNLQPEDFATYYCLQYDNLFTFGQGTKVEIKRTVAAPSVFIFPPSDEQLKSGTASVVCLLNNFYPREAKVQWKVDNALQSGNSQESVTEQDSKDSTYSLSSTLTLSKADYEKHKVYACEVTHQGLSSPVTKSFNRGEC
B15: KH04 (antibody, human IgG4 S228P, kappa)
heavy: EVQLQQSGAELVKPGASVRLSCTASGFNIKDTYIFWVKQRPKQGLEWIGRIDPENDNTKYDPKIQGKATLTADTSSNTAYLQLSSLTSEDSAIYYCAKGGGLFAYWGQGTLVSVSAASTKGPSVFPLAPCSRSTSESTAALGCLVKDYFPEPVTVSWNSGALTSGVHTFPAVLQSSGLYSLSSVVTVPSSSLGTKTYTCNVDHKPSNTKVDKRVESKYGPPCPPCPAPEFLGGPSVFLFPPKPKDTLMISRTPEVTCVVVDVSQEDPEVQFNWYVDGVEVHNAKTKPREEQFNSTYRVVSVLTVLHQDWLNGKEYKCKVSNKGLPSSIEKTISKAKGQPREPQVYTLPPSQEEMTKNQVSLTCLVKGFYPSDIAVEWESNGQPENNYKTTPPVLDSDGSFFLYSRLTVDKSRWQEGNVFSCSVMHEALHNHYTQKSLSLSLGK
light: B14 light with A10S, M11L
B16: KH09 (antibody, human IgG4 S228P, kappa, V domains shown)
VH: EVQLVESGGALVKPGGSLRLSCAASGFNIKDTYIFWVRQMPRKGLEWIGRIDPENDNTKYDPKIQGKATITADTSTDTAYMELSSLTSEDTAVYYCAKGGGLFAYWGQGTLVTVSS
VL: DIQMTQSPSAMSASVGDRVTITCEASHDINNYIAWYQQKPGKAPKLLIYYTSTLQSGVPSRFSGSGSGTDFTFTISSLQPEDIATYYCLQYDNLFTFGQGTKVEIKR
B17: KH05 (antibody, human IgG4 S228P, kappa, V domains shown)
VH: B7 VH with H5Q, E42K, F60Y, G84S
VL: B16 VL with A10S, M11L, K42Q, A43P, D70E, F73L, S77N, I83F
B18: KH07 (antibody, human IgG4 S228P, kappa, V domains shown)
VH: B7 VH with H5Q, E42K, F60Y, G84S
VL: B16 VL with K42Q, A43P

target: T1, 血浆激肽释放酶(plasma kallikrein,PK) (human, UniProt P03952 20-638); experiment: cell-based or functional assay
T1 sequence (P03952 20-638 limits assumed): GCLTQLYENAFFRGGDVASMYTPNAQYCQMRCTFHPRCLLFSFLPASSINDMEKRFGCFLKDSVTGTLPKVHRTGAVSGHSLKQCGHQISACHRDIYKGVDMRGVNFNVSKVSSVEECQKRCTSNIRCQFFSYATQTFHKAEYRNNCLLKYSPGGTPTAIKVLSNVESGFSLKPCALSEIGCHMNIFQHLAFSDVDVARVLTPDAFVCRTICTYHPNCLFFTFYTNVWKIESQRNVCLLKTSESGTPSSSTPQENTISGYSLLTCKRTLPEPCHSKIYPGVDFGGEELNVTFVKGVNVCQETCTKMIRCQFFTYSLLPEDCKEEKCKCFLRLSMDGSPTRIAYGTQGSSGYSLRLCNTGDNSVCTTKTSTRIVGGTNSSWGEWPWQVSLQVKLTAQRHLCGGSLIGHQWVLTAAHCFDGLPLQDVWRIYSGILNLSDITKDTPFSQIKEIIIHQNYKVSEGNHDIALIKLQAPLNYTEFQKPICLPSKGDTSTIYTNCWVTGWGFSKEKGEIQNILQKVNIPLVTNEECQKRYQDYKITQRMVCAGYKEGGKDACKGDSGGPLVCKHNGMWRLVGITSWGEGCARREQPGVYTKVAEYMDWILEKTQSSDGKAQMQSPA

IC50(nM), PK enzyme activity on H-Pro-Phe-Arg-AMC (fluorescence) [nM] | Binder
0.87 | B1
0.221 | B2
0.23 | B3
0.82 | B4
0.188 | B5
0.227 | B6
0.297 | B7
0.235 | B8
0.174 | B9
0.398 | B10
0.224 | B11
1.1 | B12

target: T1, 血浆激肽释放酶(plasma kallikrein,PK); experiment: cell-based or functional assay; remark: another data set of the same source

IC50(nM), PK activity in human plasma activated with Factor XIIa (H-Pro-Phe-Arg-AMC) [nM] | Binder
0.93 | B1
0.419 | B13
1.29 | B4
0.949 | B14
0.987 | B15
0.764 | B16
0.103 | B5
0.753 | B7
0.52 | B8
0.921 | B17
0.863 | B18
1.09 | B12
